US20180214569A1 (Regeneron, published 2018)

What was measured:
LukF (GS) = molecular target: T1, LukF (GS) (Staphylococcus aureus); assay: ELISA, plate coated with toxin component, chemiluminescence
T1 construct: also called LukF-PV; F-component LukF from GenScript
Protocol: (§1) MaxiSorp microtiter plates were coated overnight with 10 μg/mL of individual F-components of S. aureus bicomponent toxins per well. Recombinant toxin components were either obtained from IBT BioServices (Gaithersburg, Md.) or generated by GenScript (Piscataway Township, N.J.). […] Wells were washed 3 times and then incubated with 100 ng/mL anti-human HRP secondary antibody per well for one hour at 25° C. 100 μL of SuperSignal ELISA Pico Chemiluminescent Substrate, (ThermoFisher Scientific) was added to the wells and signal was detected (Victor X3 plate reader, Perkin Elmer). Luminescence values were analyzed by a three-parameter logistic equation over an 11-point response curve (GraphPad Prism). Isotype-matched irrelevant control antibody and S. aureus delta toxin were included as controls.

LukF (IBT) = molecular target: T2, LukF (IBT) (Staphylococcus aureus); assay: as above
T2 construct: also called LukF-PV; F-component LukF from IBT BioServices
Protocol: as §1

HlgB (GS) [1] = molecular target: T3, HlgB (GS) (Staphylococcus aureus, UniProt P0A077 26-325); assay: as above
T3 sequence: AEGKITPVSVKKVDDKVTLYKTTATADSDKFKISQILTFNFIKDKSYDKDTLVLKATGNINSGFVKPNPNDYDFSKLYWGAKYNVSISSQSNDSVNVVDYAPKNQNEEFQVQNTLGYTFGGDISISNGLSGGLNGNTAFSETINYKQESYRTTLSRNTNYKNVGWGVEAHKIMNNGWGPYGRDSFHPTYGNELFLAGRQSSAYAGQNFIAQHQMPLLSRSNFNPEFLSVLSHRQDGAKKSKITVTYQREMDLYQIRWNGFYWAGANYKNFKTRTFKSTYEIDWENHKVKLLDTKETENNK
Protocol: as §1

LukD (GS) [2] = molecular target: T4, LukD (GS) (Staphylococcus aureus, UniProt O54082 27-327); assay: as above
T4 sequence: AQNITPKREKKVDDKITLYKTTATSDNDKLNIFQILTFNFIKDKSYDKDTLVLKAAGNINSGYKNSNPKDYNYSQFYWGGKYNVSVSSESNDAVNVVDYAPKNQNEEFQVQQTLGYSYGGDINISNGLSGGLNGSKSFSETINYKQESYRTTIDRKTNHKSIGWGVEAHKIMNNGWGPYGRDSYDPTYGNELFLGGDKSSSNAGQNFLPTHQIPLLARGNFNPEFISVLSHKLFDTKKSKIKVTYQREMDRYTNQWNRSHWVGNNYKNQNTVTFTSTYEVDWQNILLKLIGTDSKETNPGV
Protocol: as §1

S. aureus delta toxin = S. aureus delta toxin (Staphylococcus aureus, UniProt P0C1V1 1-26); assay: ELISA, plate coated with toxin component
Protocol: as §1

HlgB (GS) [3] = molecular target: T3, HlgB (GS); assay: ELISA, plate coated with toxin component
Protocol: as §1

LukD (GS) [4] = molecular target: T4, LukD (GS); assay: ELISA, plate coated with toxin component
Protocol: as §1

B1: H1H15381P (antibody, V domains shown)
VH: EVQLVESGGGLVQPGGSLRLSCAASGFTFSRYDMHWVRQVTGKGLEWVSVIGTAGDTYYPDSVKGRFTISRENAKNSLSLQMNSLRAGDTAVYYCTRSYNWNFPFGYWGQGTLVTVSS
VL: DIQMTQSPSTLSASVGDRVTITCRASQSISSWLAWYQQKPGKAPRLLIYEASSLETGVPSRFSGSGSGTEFTLTISSLQPDDFATYYCQQYNRYPWTFGQGTKVEIK
LukF (GS)
  EC50: 66.7 nM
LukF (IBT)
  EC50: 165 nM
HlgB (GS) [1]
  EC50: 102 nM
LukD (GS) [2]
  EC50: 59.6 nM
S. aureus delta toxin
  binding result: no binding (tested: titration 50 uM-100 pM)

B2: H1H15420P2 (antibody, V domains shown)
VH: QVQLQESGLGLVKPSETLSLTCTVSGDSIGTYYWSWIRQPPGKGLEWIAYIYDSRHSNSNPSLKSRVTTSVDMSKNQFSLQLKSVTAADTAVYFCARDWGTWKPEGAFDIWGQGTMVTVSS
VL: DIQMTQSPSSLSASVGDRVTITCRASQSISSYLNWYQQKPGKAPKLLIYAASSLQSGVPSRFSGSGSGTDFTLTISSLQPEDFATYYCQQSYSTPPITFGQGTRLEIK
S. aureus delta toxin
  binding result: no binding (tested: titration 50 uM-100 pM)
HlgB (GS) [3]
  binding result: no binding (tested: titration 50 uM-100 pM)
LukD (GS) [4]
  binding result: no binding (tested: titration 50 uM-100 pM)

B3: H1H15376P (antibody, V domains shown)
VH: QVQLQQSGPGLVKPSQTLSLTCAISGDSVASNNAAWNWIRQSPSRGLEWLGRTYYRSKWFNDYVESVKSRISFNPDTSKNQFSLQLNSVTPEDTAVYYCARSYYDFWSGYSENNYYFYGMDVWGQGTTVTVSS
VL: DIQMTQSPSSLSASVGDRVSITCRTSQGIRNDLGWYQQKPGKAPKRLIYAASSLQSGVPSRFSGSGSGTEFTLTISSLQPEDFATYYCLQHNIYPPTFGQGTKVEIK
S. aureus delta toxin
  binding result: no binding (tested: titration 50 uM-100 pM)
HlgB (GS) [3]
  binding result: no binding (tested: titration 50 uM-100 pM)
LukD (GS) [4]
  binding result: no binding (tested: titration 50 uM-100 pM)
